{
  "source": "patent US20250002528A1",
  "about": "(OXFORD UNIVERSITY INNOVATION, published 2025)",
  "key": {"SpyTag-MBP": {"molecular_target": "T1, SpyTag-MBP", "T1 construct": "Fusion of SpyTag and MBP", "test": "ITC, monomeric SpySwitch, pH 7.5, 5 °C; ITC, pH 7.5, 5 C"}, "SpyTag003-MBP": {"molecular_target": "T2, SpyTag003-MBP", "T2 construct": "Fusion of SpyTag003 and MBP", "test": "ITC, monomeric SpySwitch, pH 7.5, 5 °C; ITC, pH 7.5, 5 C"}},
  "data": [
    {"binder": "SpySwitch (designed binder, also called SpySwitch resin; monomeric SpySwitch) MSYYHHHHHHGSGGSGAMVTTLSGLSGEQGPSGDMTTEEDSATHIHFHKHDEDGRELAGATMELRDCSGKTISTWITDGHVKDFYLYPGKYTFVATAAPDGHHVATPIEFTINEDGQVTVDGEATEGDPHTGSSGS", "values": [
      {"measurement": "Kd", "setting": "SpyTag-MBP", "value": 1100, "unit": "nM"},
      {"measurement": "stoichiometry", "setting": "SpyTag-MBP", "value": 1},
      {"measurement": "Kd", "setting": "SpyTag003-MBP", "value": 1500, "unit": "nM"},
      {"measurement": "stoichiometry", "setting": "SpyTag003-MBP", "value": 1}
    ]}
  ]
}
